In the Immune Epitope Database (IEDB):

How the values were obtained:
[1] = target: HLA-B*27:05; test: IEDB peptide-MHC binding, purified MHC/direct/fluorescence; filed as Kd, often an IC50 or EC50 that approximates it; ≥ and ≤ were set here for values at or beyond the usual limits of such assays
[2] = target: HLA-B*18:01; test: as above
[3] = target: HLA-B*15:17; test: as above
[4] = target: HLA-A*26:01; test: as above
[5] = target: HLA-B*15:09; test: as above; conditions: source organism: Burkholderia mallei ATCC 23344
[6] = target: HLA-A*02:01; test: as above
[7] = target: HLA-B*07:02; test: as above; conditions: source organism: Burkholderia mallei
[8] = target: HLA-A*31:01; test: as above
[9] = target: HLA-B*57:01; test: as above
[10] = target: HLA-B*58:01; test: as above
[11] = target: HLA-B*48:01; test: as above
[12] = target: HLA-B*51:01; test: as above
[13] = target: HLA-A*03:01; test: as above
[14] = target: HLA-A*11:01; test: as above
[15] = target: HLA-B*46:01; test: as above
[16] = target: HLA-B*15:01; test: as above
[17] = target: HLA-B*40:01; test: as above
[18] = target: HLA-B*38:01; test: as above
[19] = target: HLA-B*39:01; test: IEDB peptide-MHC binding, purified MHC/competitive/fluorescence; filed as Kd, often an IC50 or EC50 that approximates it; ≥ and ≤ were set here for values at or beyond the usual limits of such assays; conditions: source organism: Burkholderia mallei ATCC 23344
[20] = target: HLA-B*08:01; test: as above
[21] = target: HLA-A*01:01; test: as above
[22] = target: HLA-A*69:01; test: as above; conditions: source organism: Burkholderia mallei ATCC 23344
[23] = target: HLA-A*23:01; test: IEDB peptide-MHC binding, purified MHC/direct/fluorescence; filed as Kd, often an IC50 or EC50 that approximates it; ≥ and ≤ were set here for values at or beyond the usual limits of such assays; conditions: source organism: Giardia lamblia ATCC 50803
[24] = target: HLA-B*39:01; test: as above; conditions: source organism: Giardia lamblia ATCC 50803
[25] = target: HLA-A*24:03; test: as above; conditions: source organism: Giardia lamblia ATCC 50803
[26] = target: HLA-A*29:02; test: as above; conditions: source organism: Giardia lamblia ATCC 50803
[27] = target: HLA-A*02:03; test: as above; conditions: source organism: Giardia lamblia ATCC 50803
[28] = target: HLA-A*02:12; test: as above; conditions: source organism: Giardia lamblia ATCC 50803
[29] = target: HLA-B*27:03; test: as above; conditions: source organism: Giardia lamblia ATCC 50803
[30] = target: HLA-A*02:19; test: as above; conditions: source organism: Giardia lamblia ATCC 50803
[31] = target: HLA-A*68:02; test: as above; conditions: source organism: Giardia lamblia ATCC 50803
[32] = target: HLA-B*27:05; test: IEDB peptide-MHC binding, purified MHC/competitive/fluorescence; filed as Kd, often an IC50 or EC50 that approximates it; ≥ and ≤ were set here for values at or beyond the usual limits of such assays; conditions: source organism: Giardia lamblia ATCC 50803
[33] = target: HLA-B*44:02; test: as above; conditions: source organism: Giardia lamblia ATCC 50803
[34] = target: HLA-B*07:02; test: as above; conditions: source organism: Giardia lamblia ATCC 50803
[35] = target: HLA-B*58:01; test: as above; conditions: source organism: Giardia lamblia ATCC 50803
[36] = target: HLA-B*51:01; test: as above; conditions: source organism: Giardia lamblia ATCC 50803
[37] = target: HLA-A*11:01; test: as above; conditions: source organism: Giardia lamblia ATCC 50803
[38] = target: HLA-A*66:01; test: as above; conditions: source organism: Giardia lamblia ATCC 50803
[39] = target: HLA-A*30:01; test: as above
[40] = target: HLA-B*53:01; test: as above; conditions: source organism: Giardia lamblia ATCC 50803
[41] = target: HLA-B*40:01; test: as above; conditions: source organism: Giardia lamblia ATCC 50803
[42] = target: HLA-A*30:02; test: as above; conditions: source organism: Giardia lamblia ATCC 50803
[43] = target: HLA-B*14:02; test: as above; conditions: source organism: Giardia lamblia ATCC 50803
[44] = target: HLA-A*01:01; test: IEDB peptide-MHC binding, purified MHC/direct/fluorescence; filed as Kd, often an IC50 or EC50 that approximates it; ≥ and ≤ were set here for values at or beyond the usual limits of such assays; conditions: source organism: Mycobacterium tuberculosis
[45] = target: HLA-A*69:01; test: as above; conditions: source organism: Mycobacterium tuberculosis
[46] = source organism: Burkholderia mallei
[47] = source organism: Burkholderia mallei ATCC 23344
[48] = source organism: Giardia lamblia ATCC 50803
[49] = source organism: Mycobacterium tuberculosis
[50] = source organism: Mycobacterium tuberculosis str. Haarlem
[51] = source organism: Mycobacterium tuberculosis variant bovis BCG str. Pasteur 1173P2

## EPFSRRHPL
[1]; [46]
  Kd: ≥ 20 µM
[2]; [46]
  Kd: ≥ 20 µM
[3]; [46]
  Kd: 0.367 µM
[4]; [47]
  Kd: ≥ 20 µM
[5]
  Kd: ≥ 20 µM
[6]; [46]
  Kd: ≥ 20 µM
[7]
  Kd: 0.01 µM
[8]; [46]
  Kd: ≥ 20 µM
[9]; [46]
  Kd: ≥ 20 µM
[10]; [46]
  Kd: ≥ 20 µM
[11]; [46]
  Kd: ≥ 20 µM
[12]; [46]
  Kd: ≥ 20 µM
[13]; [46]
  Kd: ≥ 20 µM
[14]; [46]
  Kd: ≥ 20 µM
[15]; [46]
  Kd: ≥ 20 µM
[16]; [46]
  Kd: ≥ 20 µM
[17]; [46]
  Kd: ≥ 20 µM
[18]; [47]
  Kd: ≥ 20 µM
[19]
  Kd: 0.443 µM
[20]; [47]
  Kd: 0.0583 µM
[21]; [47]
  Kd: 3.27 µM
[22]
  Kd: 0.209 µM

## MTFPLHFRS
[2]; [48]
  Kd: ≥ 20 µM
[4]; [48]
  Kd: ≥ 20 µM
[23]
  Kd: ≥ 20 µM
[24]
  Kd: ≥ 20 µM
[6]; [48]
  Kd: ≥ 20 µM
[25]
  Kd: ≥ 20 µM
[26]
  Kd: 0.028 µM
[13]; [48]
  Kd: ≥ 20 µM
[27]
  Kd: ≥ 20 µM
[15]; [48]
  Kd: ≥ 20 µM
[28]
  Kd: ≥ 20 µM
[29]
  Kd: ≥ 20 µM
[30]
  Kd: ≥ 20 µM
[16]; [48]
  Kd: ≥ 20 µM
[31]
  Kd: ≤ 0.001 µM
[32]
  Kd: ≥ 5 µM
[33]
  Kd: ≥ 5 µM
[34]
  Kd: ≥ 5 µM
[20]; [48]
  Kd: ≥ 5 µM
[21]; [48]
  Kd: ≥ 5 µM
[35]
  Kd: ≥ 5 µM
[36]
  Kd: ≥ 5 µM
[37]
  Kd: 0.113 µM
[38]
  Kd: ≥ 5 µM
[39]; [48]
  Kd: ≥ 5 µM
[40]
  Kd: ≥ 5 µM
[41]
  Kd: ≥ 5 µM
[42]
  Kd: ≥ 5 µM
[43]
  Kd: ≥ 5 µM

## RPRLWRSVI
[1]; [49]
  Kd: ≥ 20 µM
[2]; [49]
  Kd: ≥ 20 µM
[3]; [49]
  Kd: 2.58 µM
[4]; [50]
  Kd: ≥ 20 µM
[6]; [49]
  Kd: ≥ 20 µM
[8]; [49]
  Kd: ≥ 20 µM
[9]; [49]
  Kd: ≥ 20 µM
[44]
  Kd: ≥ 20 µM
[10]; [49]
  Kd: ≥ 20 µM
[11]; [49]
  Kd: ≥ 20 µM
[12]; [49]
  Kd: 0.964 µM
[13]; [49]
  Kd: ≥ 20 µM
[14]; [49]
  Kd: ≥ 20 µM
[15]; [49]
  Kd: ≥ 20 µM
[16]; [49]
  Kd: ≥ 20 µM
[17]; [49]
  Kd: ≥ 20 µM
[18]; [50]
  Kd: ≥ 20 µM
[45]
  Kd: ≥ 20 µM
[20]; [51]
  Kd: 0.324 µM
[39]; [51]
  Kd: ≥ 20 µM
